Results taken from the supplement of paper PMC9170038.

System: MS2 coat protein
Test: apparent KD of MS2 coat protein; designed switch direction (-1 OFF switch, 1 ON switch): 1; higher = weaker reporter binding
Outline: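 Designed RNA switches sharing common flanks were transcribed on Illumina chips by stalled E. coli RNA polymerase. They were titrated with SNAP-549-labelled MS2 coat protein, from 0.7 or 1.5 nM doubling to 3 µM, in Tris-HCl pH 7.5 buffer with KCl, MgCl2, BSA, DTT, tRNA and Tween-20. Titrations ran without input, with 200 uM small-molecule ligand, or with an oligonucleotide input. The apparent KD of each design is the median over its clusters, after curve-fitting of normalised cluster fluorescence.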

[1] = Eterna round: R95, input ligand: FMN 200 uM
[2] = Eterna round: R95, input ligand: microRNA oligo, concentration not stated
[3] = Eterna round: R95, input ligand: none
[4] = input ligand: microRNA oligo, concentration not stated

Sequence	apparent KD of MS2 coat protein [1] [nM]	apparent KD of MS2 coat protein [2] [nM]	apparent KD of MS2 coat protein [3] [nM]	apparent KD of MS2 coat protein (input ligand: FMN 200 uM) [nM]	apparent KD of MS2 coat protein [4] [nM]	apparent KD of MS2 coat protein (input ligand: none) [nM]
CUGCUACAUGAGGAUCACCCAUGUUGGAGUAAUGCAGGAUAUGUGGGACCAGAAGAUAAAACAGAAGGGCAAGGAG [JR_SS!_Sub007] (puzzle: Same State 1)	18	14.4	28.8	–	–	–
UUGCUCGUGUGAGGAUAUGCCGCCGUUUCGGCUGCAGAAGGUACUCUAAUACAUGAGGAUCACCCAUGUCUCUGUUGUUUCGUG [salish99_SSNG1_r04_935] (Eterna round: R96, puzzle: Same State NG 1)	–	–	–	86.7	52.4	80.9
GCUCGAUGAGCUGUUUACAUGAGGAUCACCCAUGUAAAUGGGCAGGAUAUUUACGUGCUUUGUGUAGAGAAGGGCCCAUCGAGC [SameState NG3 #76] (Eterna round: R96, puzzle: Same State NG 3)	–	–	–	32.4	103	235
GGUGCAAUAAACGCCUACAUGAGGAUCACCCAUGUAUGUAGGCAGGAUAUCGUUUGCAAAGCAAACGAGAAGGGCUAUAGUACC [Mat - Same State NG 3 - JL Mod - D44] (Eterna round: R96, puzzle: Same State NG 3)	–	–	–	56.2	123	161
AUAGUUUCCGAAGGAUAUGAUGAGGAUCACCCAUCAGAAGGUUGGCUAUUGGGCUGACAUGAGGAUCACCCAUGUUCUGGUGUU (Eterna round: R96, puzzle: Same State NG 1)	–	–	–	39.1	33.2	57
CGGCGCUGUCGAGAGGAUAUGCGGUGAUGGACAUGAGGAUCACCCAUGUUAGCGAUAGCAUUACGGUAGAAGGCUCCACAGCUGU [Soteed Omei mod 12] (puzzle: Same State 2)	42.5	187	420	–	–	–
CGUCCGGCCUGUGCUGGCCGGUUGCAUGUACAUGAGGAUCACCCAUGUUCAUGUGCAGGCUUUUUGCUCGUCUUGUG [salish99_mir208a_013] (puzzle: Sensor for hsa-mir-208a)	19.4	11.2	18.9	–	–	–
AGAAUACAUGAGGAUCACCCAUGUCAACGUAGUCGAGGAUAUGGGCAGCCGUGAGGCGUACUAGAAGGCGAAGAGA [Mat - Same State 1 - Mod of JL - D6] (puzzle: Same State 1)	99.8	437	280	–	–	–
AAGAAAGUUUACGAGGAUAUGUUCCGCAUAACAUGAGGAUCACCCAUGUGAACAAGAAAGGCGACGCAGAAGGCGUGAGCAAAGA [Atanansori] (Eterna round: R96, puzzle: Same State 2)	–	–	–	42.4	152	219
GUUAAACAUGAGGAUCACCCAUGUCAAUGUAGUCGAGGAUAUGGGUAGCCAUGAGGCGUACUAGAAGGCGAGGAGU [Mat - Same State 1 - Mod of JL - D19] (puzzle: Same State 1)	118	69.8	80.5	–	–	–
AGUCCAGCGAAAGCUGGACAAAAGCAUGUACAUGAGGAUCACCCAUGUUCAUGUAUAAGCUUUUUGCUCGUUUUAAA [JL mod - D95 - 17] (puzzle: Sensor for hsa-mir-208a)	16.2	10.2	15.9	–	–	–
CAAGAAAACGCAGGAUAUACUCGGGCUACCCGAGUAGAAGGGUGACACAUGAGGAUCACCCAUGUACAUAGCAUUAGCUAUGGA [Onedve] (Eterna round: R96, puzzle: Same State NG 1)	–	–	–	2270	827	770
GUAAGUUCGAUGCUCGUCUCUCCGUACAAACAUGAGGAUCACCCAUGUGAUCGGGCAGUAGCCCGAUCAGUAUGGCC [Xearlaxe] (puzzle: Sensor for hsa-mir-208a)	44	22.6	47	–	–	–
GUGGUCAAUCAAGGAUAUGGAGCCUUAUUGGCUCCAGAAGGUGGGACAUGAGGAUCACCCAUGUGGCAGUGGUCAAAUGACCAC [Fiskers NG1ss - 34] (Eterna round: R96, puzzle: Same State NG 1)	–	–	–	149	172	164
UAGUACAAGCUUUUUGCUUGUCUUAUUUAACAUGAGGAUCACCCAUGUAAGUUGAAAGUUAGAGAGUGCACCUUCAA [JR_SHM208A_Sub052] (Eterna round: R96, puzzle: Sensor for hsa-mir-208a)	–	–	–	17.2	17	21.6
UACAAUCUAUCUGAGGAUAUCAUGAAUAAAACAUGAGGAUCACCCAUGUGCAGGAUAACUGCAAAUGAGAAGGCAGAUAGAUUGU [Mat - Same State 2 - Mod - D8] (puzzle: Same State 2)	13.5	16	24.1	–	–	–

Sequence	apparent KD of MS2 coat protein [1] [nM]	apparent KD of MS2 coat protein [2] [nM]	apparent KD of MS2 coat protein [3] [nM]	apparent KD of MS2 coat protein (input ligand: FMN 200 uM) [nM]	apparent KD of MS2 coat protein [4] [nM]	apparent KD of MS2 coat protein (input ligand: none) [nM]
UUAAUAAAUCAAGGAUAUCACGUCGAUUAGACGUGAGAAGGUGAUCAUAACAUGAGGAUCACCCAUGUAUUACAUGAAUAUUAA [SSNG1/1-B2] (Eterna round: R96, puzzle: Same State NG 1)	–	–	–	1810	721	659
GCGGAACAUGAGGAUCACCCAUGUGGAGGGUGUAAAGGAUAUUAUAGAGAGAAGGUAGGGUAAGAAGGUUGCUGGG [JR_SS1_Sub090] (Eterna round: R96, puzzle: Same State 1)	–	–	–	899	582	994
AUUAUUAAUGCAGGAUAUGAUUAACAUGAGGAUCACCCAUGUGGUGUUGUGAGUAAGGAGAGUGAUCAGAAGGGCAUUUUUUCU [JMF's solution 17] (Eterna round: R96, puzzle: Same State NG 2)	–	–	–	558	442	585
GUGGUCAGACAUGAGGAUCACCCAUGUGGAAUAAAUAACGGACAGGAUAUAUAAUAUAGGAUAUAGUAGAAGGGUUGAUUGGUG (Eterna round: R96, puzzle: Same State NG 3)	–	–	–	85.8	57.7	60.2
GUUACAUGAGGAUCACCCAUGUAUGUGUGGGAGUAAGUGUCUUAGGAUAUCUAGUAGUUAAUUUAAGAGAAGGAAGAUUGUUGU [JMF's solution 55] (Eterna round: R96, puzzle: Same State NG 3)	–	–	–	145	81.9	104
GGAAUAUUUACAGGAUAUGUUUUGUUAAGUCGAGCAGAAGGGUAGAUGUCUUACACGGUUUGUUACAUGAGGAUCACCCAUGUC [SameState NG1 #16] (Eterna round: R96, puzzle: Same State NG 1)	–	–	–	26.4	80.3	126
UUGCUCGUGUGAGGAUAUGCCGCCGUUUCGGCUGCAGAAGGUACUUUAAUACAUGAGGAUCACCCAUGUCUCUGUUGUUUCGUG [salish99_SSNG1_r04_933] (Eterna round: R96, puzzle: Same State NG 1)	–	–	–	–	23.1	–
CUUCGCGCCGCAGGAUAUGCCGACCCGUGUUGAGCAGAAGGGCGAGACAUGAGGAUCACCCAUGUCUAAAGAGCGCAUCAAUAA [Esedlaedbi] (Eterna round: R96, puzzle: Same State NG 1)	–	–	–	23.1	18.9	45.9
AUAAGGCAAGCUUUUUUCUCGUAGUGUAAACAUGAGGAUCACCCAUGUGCCCACCCUGGAUCUUUGAAUCGCAGAAC [Dianancete] (puzzle: Sensor for hsa-mir-208a)	26.7	16.6	27.3	–	–	–
GCUGGAAACCACAUGAGGAUCACCCAUGUUCCGGAAACGGCGCAGGAUAUCUGUCCGAAAAGGUCAGAGAAGGGUGAAACCAGC [Fiskers NG3ss - 80] (Eterna round: R96, puzzle: Same State NG 3)	–	–	–	600	387	346
GCCGCGUUUCGCGCCUACAUGAGGAUCACCCAUGUUUGUCGGCAGGAUAUCGUCCGCUCUGCGGGCGAGAAGGGCUAUUGUGGU [salish99_SSNG3_R04_027] (Eterna round: R96, puzzle: Same State NG 3)	–	–	–	28.8	17	24.5
GGAGCCAAGGCAGGAUAUUCAUAUUAACAACAUGAGGAUCACCCAUGUAAGGCCAGAAGGCCUUGGGAGAAGGGCCAUGGCUCG [Xeonanis - 13 mod4] (Eterna round: R96, puzzle: Same State NG 2)	–	–	–	26.2	110	187
CGGGAAAUCGUAGGAUAUCUAGGAUAUGAACGAGGAUCACCCGAGCAGCAUCAGCGCAUCAGAGGAGAGAAGGACGAUGAUGCG [pwkr ssNG2 2F5 2FMN.17] (Eterna round: R96, puzzle: Same State NG 2)	–	–	–	327	273	65.7
CGCCAGAGAGCAGGAUAUGGGCCACGGCCUAAGGGCUGUGAACUCACAUGAGGAUCACCCAUGUCCCAGAAGGGCUCCUGGCGG [Veatzain] (Eterna round: R96, puzzle: Same State NG 2)	–	–	–	62.4	1240	2110
GUAGCAUACCGAGGAUAUUCAUAUAAUAAAUAAACAUGAGGAUCACCCAUGUGGCGAAAGCCUUGGGAGAAGGCGGAAUGCUAC [Xeonanis - 20 Mod55] (Eterna round: R96, puzzle: Same State NG 2)	–	–	–	20.7	296	486
